Assay: yeast display, Sf9 membrane polyspecificity reagent, FACS + sequencing; frameworks hold sequencing errors
Method in brief: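 Polyreactivity labels are assigned by the sorting gate from which each nanobody was recovered. The gates were low and high (top ~1%), set on anti-HA fluorescence for expression and streptavidin fluorescence for reagent binding. Before sorting, galactose-induced (36–48 hours) yeast display cells were stained for 1 hour at 4 °C with 10% biotinylated, detergent-solubilized Sf9 membrane reagent.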

Sequence: QVQLVESGGGLVQAGGSLRLSCAASGRTFFRNVMGWYRQAPGKERELVAGITWTGGTTYYADSVKGRFTISRDNAKNTVYLQMNSLKPEDTAVYYCATRNYAVVPSVRREGYYWGQGTQVTVSS
- polyreactivity (PSR sort gate): low polyreactivity

Sequence: QVQLVESGGGLVQAGGSLRLSCAASGRTFFRYVMGWYRQAPGKERELVAAISRSGGSTYYADSVKGRFTISRDNAKITVYLQMNSLKPEDTAVYYCNTVARSTVVPTEFDYWGQGTQVTVSS
- polyreactivity (PSR sort gate): high polyreactivity

Sequence: QVQLVESGGGLVQAGGSLRLSCAASGRTFFSYAMGWYRQAPGKERELVAAITYSGGRTYYADSVKGRFTISRDNAKNTVYLQMNSLKPVDTAVYYCAATHYREKMDYWGQGTQVTVSS
- polyreactivity (PSR sort gate): low polyreactivity

Sequence: QVQLVESGGGLVQAGGSLRLSCAASGRTFFTYAMGWYRQAPGKERELVAAITGSGGSTSYADSVKGRFTISRDNAKNTVYLQMNSLKPEDTAVYYCAADWQELEYDYWGQGTQVTVSS
- polyreactivity (PSR sort gate): low polyreactivity

Sequence: QVQLVESGGGLVQAGGSLRLSCAASGRTFFVYTMGWYRQAPGKERELVAAITSDTSTTYADSVKGRFTISRDNAKNTVYLQMISLKPEDTAVYYCAAEGYVGYYDYDYWGQGTQVTVSS
- polyreactivity (PSR sort gate): low polyreactivity

Sequence: QVQLVESGGGLVQAGGSLRLSCAASGRTFFWNAMGWYRQAPGTERELVAAITWSGGSTYYADSVKGRFTLSRDNAKNTVYLQMNSLKPEDTAVYYCAAVVSEYVWRYEYWGQGTQVTVSS
- polyreactivity (PSR sort gate): low polyreactivity

Sequence: QVQLVESGGGLVQAGGSLRLSCAASGRTFFWYAMGWYRQAPGKERDLVAAIRGAGRTNYADSVKGRFTISRYNAKNTVYLQMNSLKPEDTAVYYCAAQHYPWRRYDYWGQGTQVTVSS
- polyreactivity (PSR sort gate): high polyreactivity

Sequence: QVQLVESGGGLVQAGGSLRLSCAASGRTFFYNAMGWYRQAPGKERELVAAISSGGGSTYYADSVKGRFTISRDNAKNTVYLQMNSLKPEDTAVYYCAAASYRQPGYGYWGQGTQVTVSS
- polyreactivity (PSR sort gate): high polyreactivity

Sequence: QVQLVESGGGLVQAGGSLRLSCAASGRTFGAYAMGWYRQAPGKERELVASISRSGGTTYYADSVKGRFTISRDNAKNTVYLQMNSLKPEDTAVYYCAAQYVRYGHYYWGQGTQVTVSS
- polyreactivity (PSR sort gate): high polyreactivity

Sequence: QVQLVESGGGLVQAGGSLRLSCAASGRTFGAYTMGGYRQAPGKDRELVAAISSGTRTNYADSVKGRFTISRDNAKNTVYLQMNSLIPEDTAVYYCAATVLGHNRVYYWGQGTQVTVSS
- polyreactivity (PSR sort gate): low polyreactivity

Sequence: QVQLVESGGGLVQAGGSLRLSCAASGRTFGAYTMRWYRQAPGTERELVAAINRSGGDTYYADSVKGRFTISRDTAKNTVYLQMNSLKPEDNAVYYCNAEPRYGTYDYWGQGTQVTVSS
- polyreactivity (PSR sort gate): low polyreactivity

Sequence: QVQLVESGGGLVQAGGSLRLSCAASGRTFGDYAKGWYRQAPGKERELVAAISKSGGITYYADSVKGRFTISRDNAKNTVYLQMNSLKPEDTAVYYCAARRSGEGNYWGQGTQVTVSS
- polyreactivity (PSR sort gate): high polyreactivity

Sequence: QVQLVESGGGLVQAGGSLRLSCAASGRTFGEYAMGWYRQAPGKERELVAAISSAGSTYYADSVKGRFTISRDNAKNTVYLQMNSMKPDDTAVYYCASSRKYGYGYWGQRTQVTVSS
- polyreactivity (PSR sort gate): high polyreactivity

Sequence: QVQLVESGGGLVQAGGSLRLSCAASGRTFGEYVMGGYRQAPGKERELVASISRRGGSTYYADSVKGRFTLSRDNAKNTVYVLMNSQNPEDTAVYYCAKYRTQWSKNLYPYGFDYWGHGTQVTVSS
- polyreactivity (PSR sort gate): low polyreactivity

Sequence: QVQLVESGGGLVQAGGSLRLSCAASGRTFGFNAMGWSRPAPGKERELVAVITRGGSTYADSVKGRFTISRDNAKNTVYLQMNSLKPEDTAVYYCAAYRYGFKTWMDYWGQGTQVTVSS
- polyreactivity (PSR sort gate): high polyreactivity

Sequence: QVQLVESGGGLVQAGGSLRLSCAASGRTFGFNAMGWYRQAPGKARELVAAISSSSSSTYYADSVKGRFTISRDNAKNTVYLQMNSLKPEDTAVYYCAKQEPYPFGGYYEYDYWGQGTQVTVSS
- polyreactivity (PSR sort gate): low polyreactivity

Sequence: QVQLVESGGGLVQAGGSLRLSCAASGRTFGFNAMGWYRQAPGKERELVAAISGSGGRTYYADSVKGRFTISRDNAKNTVYLQMNSLKPEDTAVYYCAAGARRGGSGYWGQGTQVTVSS
- polyreactivity (PSR sort gate): high polyreactivity

Sequence: QVQLVESGGGLVQAGGSLRLSCAASGRTFGFNAMGWYRQAPGKERELVATITTGGSTNYADSVKGRFTISRDNAKNTVYLQMNSLKPEDTAVYYCATDGWFRSGYKYFTHFYFWGQGTQVTVSS
- polyreactivity (PSR sort gate): high polyreactivity

Sequence: QVQLVESGGGLVQAGGSLRLSCAASGRTFGFNVMGCSRQAPGKERELVAAISWSGGSTYYADSVKGRFTISRDNAKNTVYLQLNSLKPEDTAVYYCNKRDDHRYGYWGQGTQVTVSS
- polyreactivity (PSR sort gate): low polyreactivity

Sequence: QVQLVESGGGLVQAGGSLRLSCAASGRTFGFNVMGWYRQAPGKEREFVAAITRSGGSTYYADSVKGRFTISRDIAKNTVYLQMNSLKPEDTAVYSCAAYKFSARYYYWGQGTQVTVSS
- polyreactivity (PSR sort gate): high polyreactivity

Sequence: QVQLVESGGGLVQAGGSLRLSCAASGRTFGFYAMGWYRQAPGKEREFVAAIYKSGGSTYYADSVKGRFTISRDIANNTVYLQMISLKPEDTAVYYCIKKVGSYYRSYYYWGQGTQVTVSS
- polyreactivity (PSR sort gate): high polyreactivity

Sequence: QVQLVESGGGLVQAGGSLRLSCAASGRTFGFYAMGWYRQAPGKERELVAAITSSGGRTYYADSVKGRFTISRDNAKNTVYLQMNSLKPEDTAVYYCATSGRGKYIRYGYWGQGTQVTVSS
- polyreactivity (PSR sort gate): high polyreactivity

Sequence: QVQLVESGGGLVQAGGSLRLSCAASGRTFGFYAMGWYRQAPGKERELVASITWRRGRTYYADSVKGRFTISRDNAKNTLYLQMNSLNPEDTAVYYCAAVTFSYDGYDYWGQGTQVTVSS
- polyreactivity (PSR sort gate): low polyreactivity

Sequence: QVQLVESGGGLVQAGGSLRLSCAASGRTFGGNAMGWYRQAPGKEWELVAAIDQSGGSTYYADSVKGRFTISRDNAKNTVYLQMISLKPEDTAVYYCARKTYSYFGHYYFWGQGTQVTVSS
- polyreactivity (PSR sort gate): low polyreactivity

Sequence: QVQLVESGGGLVQAGGSLRLSCAASGRTFGGNTMGWYRQAPGKERELVAAISFSGGSTYYADSVKGRFTISRDNAKNTVYLQMNSLKPEDTAVYYCAKDPITATTLDERVYYWGQGTQVTVSS
- polyreactivity (PSR sort gate): low polyreactivity

Sequence: QVQLVESGGGLVQAGGSLRLSCAASGRTFGGNVRGWYRQAPGKERELVAAISYSGGSTHYADSVKGRFTISRDNAKNTVYLQMMSLIPEDTAVYYCNKPFPYYPDGPNGYDYWGQGTQVTVSS
- polyreactivity (PSR sort gate): low polyreactivity

Sequence: QVQLVESGGGLVQAGGSLRLSCAASGRTFGGYAMGSYRQAPGKERELVAAISRSGGRTYYADSVKGRFTISRDNAKNTVYLQMNSLKPEDSAVYYWADRLYVGPTAMDYWGEGTQVTVSS
- polyreactivity (PSR sort gate): high polyreactivity

Sequence: QVQLVESGGGLVQAGGSLRLSCAASGRTFGHNAMGWYRQAPGKEREFVAAITYSGVRTFYADSVKGRFTISRDNAKNTVYLQMNSLKPEDTAVYYCATDWRRDYDYWGQGTQVTVSS
- polyreactivity (PSR sort gate): low polyreactivity

Sequence: QVQLVESGGGLVQAGGSLRLSCAASGRTFGHYAMGWYRQAPGKERELVAAITSRGGSTNYADSVKGRFTISRDNAKKTDYLQMNSLKPEDTAVYYCAARLSPEEGYWGQGTQVTVSS
- polyreactivity (PSR sort gate): high polyreactivity

Sequence: QVQLVESGGGLVQAGGSLRLSCAASGRTFGINAMGWYRQAPGKERELVAVISFGEGGTYYADSVKGRFTISRDNAKNTVYLQMNSLKPEDTAVYYCATDYQSTSVWGGHFVINPYDYWGLGTQVTVSS
- polyreactivity (PSR sort gate): low polyreactivity

Sequence: QVQLVESGGGLVQAGGSLRLSCAASGRTFGINDMGWYRQAPGKERELVAVIRSGGGITFYADSVKGRFTISRDNAKNTVYLQMTSLKPEDTAVYYCAKTRRDFYDAINGGGPERYDYWGQGTQVTVSS
- polyreactivity (PSR sort gate): low polyreactivity

Sequence: QVQLVESGGGLVQAGGSLRLSCAASGRTFGIYAMGWYRQAPGKEREFVAAISWSGTSTHYADSVKGRFTISRDNAKNTVYLQMNSLKPEDTAVYYCNADSRTYRYYWSYGYWGQGTQVTVSS
- polyreactivity (PSR sort gate): high polyreactivity

Sequence: QVQLVESGGGLVQAGGSLRLSCAASGRTFGIYAMGWYRQAPGKERELVAAIRWRDGSTYYADSVKGRFTISRDNAKNTVYLQMNSLKPEDTAVYYCAATSRVYVRGSYWKYGYWGQGTQVTVSS
- polyreactivity (PSR sort gate): high polyreactivity

Sequence: QVQLVESGGGLVQAGGSLRLSCAASGRTFGKNAMGWYRQAPGKERELVAAIRYRTGSTYYADSVKGRFTISRDNAKNTVYLQMNSLKPEDTAVYYCAKVGSSPLYWGQGTQVTVSS
- polyreactivity (PSR sort gate): high polyreactivity

Sequence: QVQLVESGGGLVQAGGSLRLSCAASGRTFGKNAMGWYRQAPGKEREYVAAITSRGGSTYYADSVKGRFTISRDNAKNTVYLKMYSLKPDDTAFYFCNREYKRPSQRTEHYYWGQGTQVTVSS
- polyreactivity (PSR sort gate): low polyreactivity

Sequence: QVQLVESGGGLVQAGGSLRLSCAASGRTFGKYAMGWYRQAPGKEREFVAAISRSGGNTYYADSVKGRFTISRDNAKNTVYLQMNSLKPEDTAVYYCAAKGFFYYWGQGTQVTVSS
- polyreactivity (PSR sort gate): high polyreactivity

Sequence: QVQLVESGGGLVQAGGSLRLSCAASGRTFGKYAMGWYRQAPGKERELVAAITNSGGSTYYADSVKGRFTISRDNAKNTVYLQMNSLKPEDTAVYYCNRLGYRGTSKLNHMGYWGQGTQVTVSS
- polyreactivity (PSR sort gate): high polyreactivity

Sequence: QVQLVESGGGLVQAGGSLRLSCAASGRTFGLNAMGWYRQAPGKERELVAAISSSGGSTYYADSVKGRFTISRDNAKNTVYLQMNSLKPEDTAVYYSAKVLYLYGTAYYYWGQGTEVTVSS
- polyreactivity (PSR sort gate): high polyreactivity

Sequence: QVQLVESGGGLVQAGGSLRLSCAASGRTFGLYAMGWYRQAPGKERELVAAIDQSTGSTYYADSVKGRFTISRDNAKNTVYLQMNSLKPEDTAVYYCAAEEASTVRYYWYDYWGQVTQVTVSS
- polyreactivity (PSR sort gate): high polyreactivity

Sequence: QVQLVESGGGLVQAGGSLRLSCAASGRTFGLYAMGWYRQAPGKERELVAAISRSGGRTYYADSVKGRFTISRDNAKNTVYLQMNSLKPEDTAVYYCSTYYDRASYRYDYWGQGTQETVSS
- polyreactivity (PSR sort gate): high polyreactivity

Sequence: QVQLVESGGGLVQAGGSLRLSCAASGRTFGLYAMGWYRQAPGKERELVAAISSGVSTNYADSVKGRFTISRDNAKNTVYLQMNSLKPEDTAVYYCAAKNYYPRVNYWGQGTQVTVSS
- polyreactivity (PSR sort gate): high polyreactivity

Sequence: QVQLVESGGGLVQAGGSLRLSCAASGRTFGLYAMGWYRQAPGKERELVATITTSDIITYYADSVKGRFTISRDNAKNSVYLQMNSLKPEDTAVYYCASGGYDDFSSRPANDYWGQGTQVTVSS
- polyreactivity (PSR sort gate): low polyreactivity

Sequence: QVQLVESGGGLVQAGGSLRLSCAASGRTFGNYVMGWYRQAPGKERELVAAIRSGTNTYYADSVKGRFTISLDNAKNTVYLQMNSLKPEVTAVYYCNKYVRTTDYDYWGQGIQVTVSS
- polyreactivity (PSR sort gate): high polyreactivity
